Assay results as given in the Immune Epitope Database (IEDB).

Experiments:
HLA-A*02:02 = assay: IEDB peptide-MHC binding, purified MHC/competitive/radioactivity; filed as Kd, often an IC50 or EC50 that approximates it; ≥ and ≤ were set here for values at or beyond the usual limits of such assays
HLA-A*02:03 = assay: as above
HLA-A*02:06 = assay: as above
HLA-A*01:01 = assay: as above
HLA-A*30:02 = assay: as above
HLA-B*58:01 = assay: IEDB peptide-MHC binding, purified MHC/direct/fluorescence; filed as Kd, often an IC50 or EC50 that approximates it; ≥ and ≤ were set here for values at or beyond the usual limits of such assays; details: source organism: Mycobacterium tuberculosis
HLA-B*07:02 = assay: as above; details: source organism: Human immunodeficiency virus 1
HLA-B*44:03 = assay: IEDB peptide-MHC binding, purified MHC/competitive/radioactivity; filed as Kd, often an IC50 or EC50 that approximates it; ≥ and ≤ were set here for values at or beyond the usual limits of such assays
HLA-B*44:02 = assay: as above
HLA-A*11:01 = assay: IEDB peptide-MHC binding, purified MHC/direct/fluorescence; filed as Kd, often an IC50 or EC50 that approximates it; ≥ and ≤ were set here for values at or beyond the usual limits of such assays; details: source organism: Homo sapiens
HLA-A*26:01 = assay: IEDB peptide-MHC binding, purified MHC/competitive/radioactivity; filed as Kd, often an IC50 or EC50 that approximates it; ≥ and ≤ were set here for values at or beyond the usual limits of such assays; details: source organism: Dengue virus 3 Martinique/1243/1999
[1] = source organism: Mammarenavirus whitewaterense
[2] = source organism: Vaccinia virus WR
[3] = source organism: Dengue virus 3 Martinique/1243/1999
[4] = source organism: Dengue virus 4 Philippines/H241/1956
[5] = source organism: Lymphocytic choriomeningitis virus (strain Armstrong)
[6] = source organism: Dengue virus 2 Jamaica/1409/1983
[7] = source organism: SARS coronavirus Tor2
[8] = source organism: Dengue virus 1 Singapore/S275/1990
[9] = source organism: Dengue virus 3 Sri Lanka/1266/2000
[10] = source organism: Mammarenavirus lassaense

YCHGILLKDV gave a Kd (HLA-A*02:02; [1]) of at least 70000 nM, a Kd (HLA-A*02:03; [1]) of 13000 nM and a Kd (HLA-A*02:06; [1]) of 14900 nM.

ILISLINSLV gave a Kd (HLA-A*02:02; [2]) of 22.9 nM, a Kd (HLA-A*02:03; [2]) of 3.08 nM and a Kd (HLA-A*02:06; [2]) of 151 nM.

Sequence VTTWENVPYL has a Kd (HLA-A*01:01; [3]) of 11300 nM.

For FTEEQQQSFM, the Kd (HLA-A*02:02; [2]) was 1120 nM, the Kd (HLA-A*02:03; [2]) was 1750 nM and the Kd (HLA-A*02:06; [2]) was 833 nM.

Work on IVYGRSNAIL yielded a Kd (HLA-A*02:02; [2]) of 91.6 nM, a Kd (HLA-A*02:03; [2]) of 33.4 nM and a Kd (HLA-A*02:06; [2]) of 424 nM.

With NTITTFIPI the Kd (HLA-A*02:02; [2]) was 15500 nM, the Kd (HLA-A*02:03; [2]) was 988 nM and the Kd (HLA-A*02:06; [2]) was 7770 nM.

LVQIENLEY was tested, and the Kd (HLA-A*01:01; [4]) was 90.4 nM and the Kd (HLA-A*30:02; [4]) was 1110 nM.

For LTGTFVTAFI, the Kd (HLA-A*02:02; [2]) was 672 nM, the Kd (HLA-A*02:03; [2]) was 596 nM and the Kd (HLA-A*02:06; [2]) was 413 nM.

FMLNVSYLC showed a Kd (HLA-A*02:02; [5]) of 196 nM, a Kd (HLA-A*02:03; [5]) of 1250 nM and a Kd (HLA-A*02:06; [5]) of 932 nM.

LSNAGSNNW gave a Kd (HLA-B*58:01) of 48.6 nM.

ITLTAALLLL gave a Kd (HLA-A*01:01; [6]) of 5940 nM and a Kd (HLA-A*02:06; [6]) of 27.4 nM.

For DINESMSQMV, the Kd (HLA-A*02:02; [2]) was 312 nM, the Kd (HLA-A*02:03; [2]) was 488 nM and the Kd (HLA-A*02:06; [2]) was 4150 nM.

KLMGHFSWWT gave a Kd (HLA-A*02:02; [7]) of 64.4 nM, a Kd (HLA-A*02:03; [7]) of 213 nM and a Kd (HLA-A*02:06; [7]) of 99.1 nM.

EILSNTTKTL showed a Kd (HLA-A*02:02; [2]) of 345 nM, a Kd (HLA-A*02:03; [2]) of 101 nM and a Kd (HLA-A*02:06; [2]) of at least 69800 nM.

With AAAKTPVIVV the Kd (HLA-A*02:02; [2]) was 8040 nM, the Kd (HLA-A*02:03; [2]) was 1520 nM and the Kd (HLA-A*02:06; [2]) was 13400 nM.

In the case of GTMPSLTMAC, the Kd (HLA-A*02:02; [5]) is reported as at least 25200 nM, the Kd (HLA-A*02:03; [5]) is reported as 16300 nM and the Kd (HLA-A*02:06; [5]) is reported as 12100 nM.

Sequence IPLTEEAEL has a Kd (HLA-B*07:02) of 5310 nM.

With SELETPNLAE the Kd (HLA-B*44:03; [8]) was 6330 nM.

With IAVSVYGAI the Kd (HLA-A*02:02; [2]) was 1480 nM, the Kd (HLA-A*02:03; [2]) was 124 nM and the Kd (HLA-A*02:06; [2]) was 1100 nM.

MEAQLVRQM gave a Kd (HLA-B*44:02; [9]) of 14.7 nM and a Kd (HLA-B*44:03; [9]) of 123 nM.

Sequence AIILASFSA has a Kd (HLA-A*02:02; [7]) of 201 nM, a Kd (HLA-A*02:03; [7]) of 176 nM and a Kd (HLA-A*02:06; [7]) of 81.6 nM.

For ELTSNCTRT, the Kd (HLA-A*02:02; [2]) was at least 77800 nM, the Kd (HLA-A*02:03; [2]) was at least 78100 nM and the Kd (HLA-A*02:06; [2]) was at least 46500 nM.

CGRGGWSYY showed a Kd (HLA-A*30:02; [3]) of 253 nM.

For IVVPVIDRL, the Kd (HLA-A*02:02; [2]) was 144 nM, the Kd (HLA-A*02:03; [2]) was 226 nM and the Kd (HLA-A*02:06; [2]) was 30.9 nM.

DLAIKQYGDI was tested, and the Kd (HLA-A*02:02; [2]) was 17900 nM, the Kd (HLA-A*02:03; [2]) was at least 33300 nM and the Kd (HLA-A*02:06; [2]) was at least 46500 nM.

Sequence VAKCCSKTNT has a Kd (HLA-A*02:02; [2]) of 14700 nM, a Kd (HLA-A*02:03; [2]) of at least 21700 nM and a Kd (HLA-A*02:06; [2]) of at least 40800 nM.

In the case of ITLILSNKL, the Kd (HLA-A*02:02; [2]) is reported as 5110 nM, the Kd (HLA-A*02:03; [2]) is reported as 17100 nM and the Kd (HLA-A*02:06; [2]) is reported as 396 nM.

For EAFETQSGAL, the Kd (HLA-A*02:02; [2]) was 8560 nM, the Kd (HLA-A*02:03; [2]) was 995 nM and the Kd (HLA-A*02:06; [2]) was 15000 nM.

FLDWIKDIMT showed a Kd (HLA-A*02:02; [2]) of 424 nM, a Kd (HLA-A*02:03; [2]) of 146 nM and a Kd (HLA-A*02:06; [2]) of 140 nM.

YLYTEYFLFL showed a Kd (HLA-A*02:02; [2]) of 0.684 nM, a Kd (HLA-A*02:03; [2]) of 1.32 nM and a Kd (HLA-A*02:06; [2]) of 0.841 nM.

AAVIIMAINV gave a Kd (HLA-A*02:02; [2]) of 1290 nM, a Kd (HLA-A*02:03; [2]) of 607 nM and a Kd (HLA-A*02:06; [2]) of 446 nM.

SAGFTATICL showed a Kd (HLA-A*02:02; [2]) of 6900 nM, a Kd (HLA-A*02:03; [2]) of at least 20100 nM and a Kd (HLA-A*02:06; [2]) of 2410 nM.

Work on DISDVKVLAA yielded a Kd (HLA-A*02:02; [2]) of at least 33800 nM, a Kd (HLA-A*02:03; [2]) of 2200 nM and a Kd (HLA-A*02:06; [2]) of 4610 nM.

ERPAFGIQK gave a Kd (HLA-A*11:01) of 17500 nM.

Work on LILSNKLLYA yielded a Kd (HLA-A*02:02; [2]) of 468 nM, a Kd (HLA-A*02:03; [2]) of 122 nM and a Kd (HLA-A*02:06; [2]) of 36.1 nM.

LTDFQSHQL showed a Kd (HLA-A*01:01; [8]) of 6440 nM.

With LNCLSLLLSV the Kd (HLA-A*02:02; [10]) was 123 nM, the Kd (HLA-A*02:03; [10]) was 230 nM and the Kd (HLA-A*02:06; [10]) was 250 nM.

Work on ELPETMETLL yielded a Kd (HLA-A*26:01) of 2370 nM.

Work on AEIQPQWIAA yielded a Kd (HLA-B*44:02; [4]) of 67.2 nM and a Kd (HLA-B*44:03; [4]) of 1120 nM.

With AIKSNNHLT the Kd (HLA-A*02:02; [2]) was at least 50700 nM, the Kd (HLA-A*02:03; [2]) was at least 28600 nM and the Kd (HLA-A*02:06; [2]) was at least 77100 nM.
